Target: NagA-GFP-His6 fusion protein (N-acetylglucosamine-6-phosphate deacetylase from Mycobacterium smegmatis with C-terminal TEV-cleavable GFP-His6) (Mycobacterium smegmatis)
Experiment: SEC; Superdex 200 16/60, 20 mM Bis-Tris, 300 mM NaCl, 10% glycerol pH 8.0; oligomeric state from the elution profile

stoichiometry N: 2
Substance: NagA-GFP-His6 fusion protein (N-acetylglucosamine-6-phosphate deacetylase from Mycobacterium smegmatis with C-terminal TEV-cleavable GFP-His6) (enzyme)

Source: article PMC6180428
